Measured values taken from publication PMC7041794, “Investigating the ferric ion binding site of magnetite biomineralisation protein Mms6” (PLoS ONE, 2020).

B1: SUMO-Mms6 R55A (natural protein, Magnetospirillum magneticum AMB-1)
chain: GGTIWTGKGLGLGLGLGLGAWGPIILGVVGAGAVYAYMKSRDIESAQSDEEVELADALA
notes: Mms6, Magnetospirillum magneticum AMB-1, mature form; numbers count on: the mature protein; Same tags and construct as m1; source: E. coli BL21 (DE3) Star, purified (nickel column, dialysis); not shown: His6, N-terminal, kept; SUMO (yeast), N-terminal, kept
B2: SUMO-Mms6 D42A (natural protein, Magnetospirillum magneticum AMB-1)
chain: GGTIWTGKGLGLGLGLGLGAWGPIILGVVGAGAVYAYMKSRAIESAQSDEEVELRDALA
notes: Mms6, Magnetospirillum magneticum AMB-1, mature form; numbers count on: the mature protein; Same tags and construct as m1 (pET28SUMOmms6, site directed mutagenesis); source: E. coli BL21 (DE3) Star, purified (nickel column, dialysis); not shown: His6, N-terminal, kept; SUMO (yeast), N-terminal, kept
B3: SUMO-Mms6 E44A (natural protein, Magnetospirillum magneticum AMB-1)
chain: GGTIWTGKGLGLGLGLGLGAWGPIILGVVGAGAVYAYMKSRDIASAQSDEEVELRDALA
notes: as for B1
B4: SUMO-Mms6 D49A (natural protein, Magnetospirillum magneticum AMB-1)
chain: GGTIWTGKGLGLGLGLGLGAWGPIILGVVGAGAVYAYMKSRDIESAQSAEEVELRDALA
notes: as for B1
B5: SUMO-Mms6 E50A (natural protein, Magnetospirillum magneticum AMB-1)
chain: GGTIWTGKGLGLGLGLGLGAWGPIILGVVGAGAVYAYMKSRDIESAQSDAEVELRDALA
notes: as for B1
B6: SUMO-Mms6 E51A (natural protein, Magnetospirillum magneticum AMB-1)
chain: GGTIWTGKGLGLGLGLGLGAWGPIILGVVGAGAVYAYMKSRDIESAQSDEAVELRDALA
notes: as for B1
B7: SUMO-Mms6 EE50AA (natural protein, Magnetospirillum magneticum AMB-1)
chain: GGTIWTGKGLGLGLGLGLGAWGPIILGVVGAGAVYAYMKSRDIESAQSDAAVELRDALA
notes: Mms6, Magnetospirillum magneticum AMB-1, mature form; numbers count on: the mature protein; Same tags and construct as m1; also called double mutant; source: E. coli BL21 (DE3) Star, purified (nickel column, dialysis); not shown: His6, N-terminal, kept; SUMO (yeast), N-terminal, kept
B8: SUMO-Mms6 E53A (natural protein, Magnetospirillum magneticum AMB-1)
chain: GGTIWTGKGLGLGLGLGLGAWGPIILGVVGAGAVYAYMKSRDIESAQSDEEVALRDALA
notes: as for B1
B9: SUMO-Mms6 (natural protein, Magnetospirillum magneticum AMB-1)
chain: GGTIWTGKGLGLGLGLGLGAWGPIILGVVGAGAVYAYMKSRDIESAQSDEEVELRDALA
notes: Mms6, Magnetospirillum magneticum AMB-1, mature form (59 residues), the C-terminal stretch of the printed SUMO-Mms6 construct; numbers count on: the mature protein (truncated form isolated by Arakaki et al.); No cleavage of the tags is described; also called wildtype SUMO-Mms6; Mms6 (His6-SUMO fusion); source: E. coli BL21 (DE3) Star, purified (nickel column, dialysis against EDTA and …)

Target: the molecule itself
Experiment: SDS-PAGE; purified proteins on Bio-Rad AnyKd gel, InstantBlue staining; apparent monomer and dimer bands

Does B1 bind?
Result: binds

Does B2 bind?
Result: binds

Does B3 bind?
Result: binds

Does B4 bind?
Result: binds

Does B5 bind?
Result: binds

Does B6 bind?
Result: binds

Does B7 bind?
Result: binds

Does B8 bind?
Result: binds

Target: the molecule itself
Experiment: SEC; gel filtration of purified SUMO-Mms6 on Superdex S200 10/300 in 20 mM Tris pH 7.4; molecular weights extrapolated from Gel Filtration Marker Kit standards

How did the “stoichiometry N” value turn out when B9 was run?
Its value is 2.
